The values below come from patent publication US20070026428A1.

Assay in all cases: cell-based or functional assay
The target in experiment [1] is cz::ced-3(p15), CED-3 small subunit with the CZ leucine zipper at its N-terminus (opposite orientation) (C. elegans) (UniProt P42573).
The target of experiment [2] is ced-3(p15)::nz, CED-3 small subunit p15 with the NZ anti-parallel leucine zipper at its C-terminus (C. elegans) (UniProt P42573).
Experiment [3] addresses Caspase-3(p12)::nz, human Caspase-3 small subunit p12 with the NZ anti-parallel leucine zipper at its C-terminus (human) (UniProt P42574).

For the molecule “ced-3(p17)::nz, CED-3 large subunit with the NZ leucine zipper at its C-terminus (opposite orientation) (from UniProt P42573 222-374)”, in experiment [1], the % GFP positive touch cells (surviving cells), zippers in the opposite orientation was 96%.

In experiment [2], “cz::ced-3(p17), CED-3 large subunit p17 with the CZ anti-parallel leucine zipper at its N-terminus (from UniProt P42573 222-374)” had a % GFP positive cells in L1 larvae, ced-3(n717) background of 5.9%; a % GFP positive cells in L1 larvae, ced-8(n1891) background of 21.9%; a % GFP positive cells in adults, ced-3(n717) background of 5.1%; a % GFP positive cells in adults, ced-8(n1891) background of 4.5%. In experiment [2], the % GFP positive cells in adults, recCED-3(uIs37) turned out to be 5.4%; the death of touch sensory neurons monitored by the loss of GFP fluorescence, extrachromosomal arrays was over 60%; the death of touch sensory neurons, integrated lines was over 95%.

B1: cz::Caspase-3(p17), human Caspase-3 large subunit p17 with the CZ anti-parallel leucine zipper at its N-terminus (protein, part only; not given: Exact insert limits, part only)
chain, part: GGSGMENTENSVDSKSIKNLEPKIIHGSESMDSGISLDNSYKMDYPEMGLCIIINNKNFHKSTGMTSRSGTDVDAANLRETFRNLKYEVRNKNDLTREEIVELMRDVSKEDHSKRSSFVCVLLSHGEEGIIFGTNGPVDLKKITNFFRGDRCRSLTGKPKLFIIQACRGTELDCGIETD
Consider B1, for which, in experiment [3], the % GFP positive cells in adults, ced-3(n717) background came to 1%; the % GFP positive cells in adults, recCaspase-3(uIs40) worked out at 0.9%; the % of YFP positive HeLa cells with nuclear YFP (caspase-sensing EYFP vector) after doxycycline induction lay within 30 to 40%; the animals completely or partially paralyzed within three hours after induction of heat shock, hsp-16 and myo-3 promoters is over 50%. Moreover, in experiment [3], the animals completely paralyzed within 12 hours after heat shock, hsp-16 and myo-3 promoters came out at 100%; the apoptotic death of touch sensory neurons in C. elegans, extrachromosomal arrays is 80%; the death of touch receptor neurons in C. elegans, integrated DNA is 100%; the killing of embryonically derived ALM and PLM touch neurons after heat shock in the embryo, hsp-16 and mec-18 promoters is over 90%. For the same molecule, the paralysis of animals (death of body wall muscle cells) after heat shock, hsp-16 and myo-3 promoters in experiment [3] is over 90%.
